Laboratory results taken from patent US20040123344A1, “Novel gene encoding an f-box protein which regulates leaf longevity in arabidopsis thaliana and mutant gene thereof” (priority 2000, published 2004).

What was measured:
GST-ASK1 fusion protein = target: T1, GST-ASK1 fusion protein (Arabidopsis thaliana, UniProt Q39255); experiment: In vitro binding assay with GST-ASK1 fusion protein; details: 35S-labeled in vitro translation product; glutathione beads; GST as negative control
T1 construct: made in house; host or cells: Escherichia coli BL21(DE3) pLysS
T1 sequence (Q39255 1-160): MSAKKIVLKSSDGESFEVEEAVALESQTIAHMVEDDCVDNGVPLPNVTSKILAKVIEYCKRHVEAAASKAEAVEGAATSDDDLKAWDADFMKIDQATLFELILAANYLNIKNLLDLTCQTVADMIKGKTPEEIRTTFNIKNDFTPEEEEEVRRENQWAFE
Description: In order to examine that ORE9 protein or derivatives thereof directly bind with ASK1, a GST-ASK1 fusion protein and a ^35S-labeled ORE9 protein produced by in vitro translation were subjected to in vitro binding assay. To obtain a glutathione S-transferase (GST) protein and a GST-ASK1 fusion protein, a vector pGEX (APBiotech, Co.) and a vector pGEX-ASK1 were constructed, which express the above proteins, respectively. Artificial sequences represented by SEQ ID NO: 14 and SEQ ID NO: 15 were used as PCR primers to amplify a gene encoding the ASK1 fragment. The resulting PCR product was digested with EcoRI and NcoI restriction enzymes, and inserted into the restriction enzyme sites of the pGEX vector. Escherichia coli BL21(DE3) pLysS was transformed with the resulting two vectors, and GST and GST-ASK1 fusion proteins were expressed. The GST and GST-ASK1 fusion proteins were purified by chromatography with glutathione-Sepharose 4B beads. The purified proteins was subjected to electrophoresis with SDS-polyacryamide gets, dyed with Coomassie blue, and measured for their amount. GST and GST-ASK1 fusion proteins of the same amount were added to glutathione beads, which had been previously washed with 10-fold volume of B buffer (20 mM […], pH 7.6, 150 mM sodium chloride, 10% glycerol, 0.5% NP-40, 1 mM DTT) three times. Then, the resulting proteins were adsorbed 4° C. for one hour using a rotating mixer. The provided beads were washed with 1 ml B buffer three times, and then stored in a state where the ratio of slurries relative to B buffer is 50%.
Meanwhile, a radioactivity-labeled ORE9 (1-693), the mutant type ore9 and ORE9 derivatives (1-327 and 50-693) were prepared using the in vitro transcription/translation system (Promega, USA) and [^35S]-methionine (DuPont NEN, USA). The proteins were quantitatively analyzed with SDS-PAGE and BAS radioanalytic imaging system (Japan). Then, the respective ^35S-labeled translation products of the same amount were mixed with 60 μl GST-adsorbed beads or GST-ASK1 fusion protein-absorbed beads, contained in 1 ml GB buffer (final concentration: 20 mM Tris-HCl, pH 7.5, 0.15% NP-40, 150 mM NaCl, 1 mM EDTA). The resulting beads were cultured in a rotating mixer at 4° C. for two hours, and then washed with 1 ml GB buffer four times. The washed beads were added with 30 μl of 2×SDS sample solutions, boiled for three minutes and then isolated with SDS-PAGE. The resulting gels were dried to dryness, and then exposed to X-ray film.

ASK2(1-172) = target: T2, ASK2(1-172) (Arabidopsis thaliana, UniProt Q9FHW7); experiment: Yeast two-hybrid assay with ASK2; assay type: cell-based; details: HF7c yeast
T2 construct: the plasmid pGAD424-ASK2(1-172)[4] was constructed by inserting a BamHI/PstI fragment of pGTE-ASK2(1-172) into pGAD424; expressed in transfected cells; host or cells: Saccharomyces cerevisiae HF7c
T2 sequence (Q9FHW7 1-171): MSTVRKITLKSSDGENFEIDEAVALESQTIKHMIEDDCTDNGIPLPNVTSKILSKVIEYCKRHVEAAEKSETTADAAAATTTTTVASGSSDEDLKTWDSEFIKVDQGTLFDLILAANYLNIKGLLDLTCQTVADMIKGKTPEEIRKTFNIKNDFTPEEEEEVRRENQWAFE
Description: As expression vectors of expressing GAL4 DNA binding domain (GAL4-BD) and ORE9 fusion protein, plasmids pGBT9-ORE9 (1-49) and pGBT9-ORE9 (50-693) were constructed. The plasmid pGBT9-ORE9 expresses a fragment of ORE9 containing N-terminal 1-49th amino acids corresponding to an F-box region of ORE9, and the plasmid pGBT9-ORE9 (50-693) expresses a fragment of ORE9 containing 50-693th amino acids from which the F-box region was removed.
First, the gene encoding the ORE9 (1-49) fragment was amplified by PCR using a primer represented by SEQ ID NO: 10 and SEQ ID NO: 11, and then inserted into BamHI and PstI restriction enzyme sites of pGBT9 (Clontech, USA) containing a 4-BD gene and a tryptophan auxotrophic selection marker gene (TRP1), thereby constructing the plasmid pGBT9-ORE9 (1-49). Similarly, the plasmid pGBT 9-ORE9 (50-693) was constructed, which expresses an ORE9 (50-693) fragment and a GAL4-BD fusion protein. In this case, oligonucletides represented by SEQ ID NO: 12 and SEQ ID NO: 13 were used as PCR primers to amplify the gene encoding the ORE9 (50-693) fragment. […]

B1: ore9: mutant protein with early translation termination, 8 LRRs, SEQ ID NO: 3 (protein, listed as Arabidopsis thaliana)
chain: MASTTLSDLPDVILSTISSLVSDSRARNSLSLVSHKFLALERSTRSHLTIRGNARDLSLVPDCFRSISHLDLSFLSPWGHTLLASLPIDHQNLLALRLKFCFPFVESLNVYTRSPSSLELLLPQWPRIRHIKLLRWHQRASQIPTGGDFVPIFEHCGGFLESLDLSNFYHWTEDLPPVLLRYADVAARLTRLDLLTASFTEGYKSSEIVSITKSCPNLKTFRVACTFDPRYFEFVGDETLSAVATSSPKLTLLHMVDTASLANPRAIPGTEAGDSAVTAGTLIEVFSGLPNLEELVLDVGKDVKHSGVALEALNSKCKKLRVLKLG
GST-ASK1 fusion protein
  binding (co-precipitation) with GST-ASK1: co-precipitated with the GST-ASK1 fusion protein
ASK2(1-172)
  binding with ASK2 in yeast two-hybrid assay: didn't bind to each other
